Measured values published in patent US20180155451A1 (published 2018).

T1: FcγRIIb extracellular domain with C-terminal His tag (human, UniProt P31994 43-217)
T1 construct: extracellular domain; also called FcgRIIb; 2b; not shown: His tag at the C terminus
T1 sequence (looked up): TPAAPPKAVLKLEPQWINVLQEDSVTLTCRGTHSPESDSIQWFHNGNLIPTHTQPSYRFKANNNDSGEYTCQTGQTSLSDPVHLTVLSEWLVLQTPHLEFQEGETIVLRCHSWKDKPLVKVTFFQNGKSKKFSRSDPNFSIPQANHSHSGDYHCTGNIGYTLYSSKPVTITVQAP


Columns and labels:
[1] = target: T2, FcγRIIIa extracellular domain with C-terminal His tag (human, UniProt P08637 17-208); assay: SPR (Biacore), antibody captured on antigen peptide chip, FcγR as analyte; relative binding amount
T2 construct: extracellular domain; also called FcgRIIIa; 3a; not shown: His tag at the C terminus
Method: (§1) Analysis of interaction between objective antibody and the FcγR was carried out using Biacore T100 (GE Healthcare). HBS-EP+ (GE Healthcare) was used as the running buffer, and the measurement temperature was set to 25° C. Chips produced by immobilizing the antigen peptide by the amine coupling method to a Series S Sencor Chip CM5 (GE Healthcare), or alternatively, chips produced by allowing preliminarily biotinylated antigen peptides to interact with and immobilize onto a Series S Sensor Chip SA (certified) (GE Healthcare) were used. Antibodies of interest were captured onto an antigen peptide-immobilized chip, and allowed to interact to each FcγR diluted with running buffer. To regenerate and repeatedly use the chip, the antibodies captured on the chip were washed off by reacting 10 mM glycine-HCl, pH 1.5.
(§2) The FcγR-binding activity of each antibody was assessed primarily using as an indicator the FcγR-binding activity and dissociation constant for FcγR.

[2] = target: T1, FcγRIIb extracellular domain with …; assay: as above
Method: as §1, §2

T2 sequence (P08637 17-208): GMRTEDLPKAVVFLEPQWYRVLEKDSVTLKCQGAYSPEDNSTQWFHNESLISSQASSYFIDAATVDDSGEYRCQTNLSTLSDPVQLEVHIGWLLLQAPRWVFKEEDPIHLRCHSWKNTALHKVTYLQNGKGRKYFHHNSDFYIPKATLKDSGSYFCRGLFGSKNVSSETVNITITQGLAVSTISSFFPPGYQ

| Binder | He/Con_3a [1] | He/Con_2b [2] |
| --- | --- | --- |
| GpH7-A5/GpH7-B3 variant A327_01G/GpL16-k0 (antibody, human IgG1, kappa, Heterodimerized anti-glypican-3 IgG1; the substitution stands in the GpH7-B3 chain only; also called He Ab) heavy 1: not shown heavy 2: not shown light: DIVMTQSPLSLPVTPGEPASISCQASESLVHSNRNTYLHWYLQKPGQSPQLLIYKVSNRFSGVPDRFSGSGSGTDFTLKISRVEAEDVGVYYCSQNTHVPPTFGQGTKVEIERTVAAPSVFIFPPSDEQLKSGTASVVCLLNNFYPREAKVQWKVDNALQSGNSQESVTEQDSKDSTYSLSSTLTLSKADYEKHKVYACEVTHQGLSSPVTKSFNRGEC | 72.4 % of GpH7-A5/GpH7-B3/GpL16-k0 (=100) | 116 % of GpH7-A5/GpH7-B3/GpL16-k0 (=100) |
| GpH7-A5/GpH7-B3 variant K326_20W/GpL16-k0 (antibody, human IgG1, kappa, Heterodimerized anti-glypican-3 IgG1; the substitution stands in the GpH7-B3 chain only; also called He Ab) heavy 1: not shown heavy 2: not shown light: DIVMTQSPLSLPVTPGEPASISCQASESLVHSNRNTYLHWYLQKPGQSPQLLIYKVSNRFSGVPDRFSGSGSGTDFTLKISRVEAEDVGVYYCSQNTHVPPTFGQGTKVEIERTVAAPSVFIFPPSDEQLKSGTASVVCLLNNFYPREAKVQWKVDNALQSGNSQESVTEQDSKDSTYSLSSTLTLSKADYEKHKVYACEVTHQGLSSPVTKSFNRGEC | 84.8 % of GpH7-A5/GpH7-B3/GpL16-k0 (=100) | 148 % of GpH7-A5/GpH7-B3/GpL16-k0 (=100) |
| GpH7-A5/GpH7-B3 variant H268_03V/GpL16-k0 (antibody, human IgG1, kappa, Heterodimerized anti-glypican-3 IgG1; the substitution stands in the GpH7-B3 chain only; also called He Ab) heavy 1: not shown heavy 2: not shown light: DIVMTQSPLSLPVTPGEPASISCQASESLVHSNRNTYLHWYLQKPGQSPQLLIYKVSNRFSGVPDRFSGSGSGTDFTLKISRVEAEDVGVYYCSQNTHVPPTFGQGTKVEIERTVAAPSVFIFPPSDEQLKSGTASVVCLLNNFYPREAKVQWKVDNALQSGNSQESVTEQDSKDSTYSLSSTLTLSKADYEKHKVYACEVTHQGLSSPVTKSFNRGEC | 92.3 % of GpH7-A5/GpH7-B3/GpL16-k0 (=100) | 114 % of GpH7-A5/GpH7-B3/GpL16-k0 (=100) |
| GpH7-A5/GpH7-B3 variant K326_16H/GpL16-k0 (antibody, human IgG1, kappa, Heterodimerized anti-glypican-3 IgG1; the substitution stands in the GpH7-B3 chain only; also called He Ab) heavy 1: not shown heavy 2: not shown light: DIVMTQSPLSLPVTPGEPASISCQASESLVHSNRNTYLHWYLQKPGQSPQLLIYKVSNRFSGVPDRFSGSGSGTDFTLKISRVEAEDVGVYYCSQNTHVPPTFGQGTKVEIERTVAAPSVFIFPPSDEQLKSGTASVVCLLNNFYPREAKVQWKVDNALQSGNSQESVTEQDSKDSTYSLSSTLTLSKADYEKHKVYACEVTHQGLSSPVTKSFNRGEC | 96.1 % of GpH7-A5/GpH7-B3/GpL16-k0 (=100) | 119 % of GpH7-A5/GpH7-B3/GpL16-k0 (=100) |
| GpH7-A5/GpH7-B3 variant H268_20W/GpL16-k0 (antibody, human IgG1, kappa, Heterodimerized anti-glypican-3 IgG1; the substitution stands in the GpH7-B3 chain only; also called He Ab) heavy 1: not shown heavy 2: not shown light: DIVMTQSPLSLPVTPGEPASISCQASESLVHSNRNTYLHWYLQKPGQSPQLLIYKVSNRFSGVPDRFSGSGSGTDFTLKISRVEAEDVGVYYCSQNTHVPPTFGQGTKVEIERTVAAPSVFIFPPSDEQLKSGTASVVCLLNNFYPREAKVQWKVDNALQSGNSQESVTEQDSKDSTYSLSSTLTLSKADYEKHKVYACEVTHQGLSSPVTKSFNRGEC | 82.8 % of GpH7-A5/GpH7-B3/GpL16-k0 (=100) | 111 % of GpH7-A5/GpH7-B3/GpL16-k0 (=100) |

The remaining lines, values ahead:

| He/Con_3a [1] | He/Con_2b [2] | Binder |
| --- | --- | --- |
| 92.6 % of GpH7-A5/GpH7-B3/GpL16-k0 (=100) | 102 % of GpH7-A5/GpH7-B3/GpL16-k0 (=100) | GpH7-A5/GpH7-B3 variant S298_06M/GpL16-k0 (antibody, human IgG1, kappa, Heterodimerized anti-glypican-3 IgG1; the substitution stands in the GpH7-B3 chain only; also called He Ab) heavy 1: not shown heavy 2: not shown light: DIVMTQSPLSLPVTPGEPASISCQASESLVHSNRNTYLHWYLQKPGQSPQLLIYKVSNRFSGVPDRFSGSGSGTDFTLKISRVEAEDVGVYYCSQNTHVPPTFGQGTKVEIERTVAAPSVFIFPPSDEQLKSGTASVVCLLNNFYPREAKVQWKVDNALQSGNSQESVTEQDSKDSTYSLSSTLTLSKADYEKHKVYACEVTHQGLSSPVTKSFNRGEC |
| 73.5 % of GpH7-A5/GpH7-B3/GpL16-k0 (=100) | 108 % of GpH7-A5/GpH7-B3/GpL16-k0 (=100) | GpH7-A5/GpH7-B3 variant S298_08L/GpL16-k0 (antibody, human IgG1, kappa, Heterodimerized anti-glypican-3 IgG1; the substitution stands in the GpH7-B3 chain only; also called He Ab) heavy 1: not shown heavy 2: not shown light: DIVMTQSPLSLPVTPGEPASISCQASESLVHSNRNTYLHWYLQKPGQSPQLLIYKVSNRFSGVPDRFSGSGSGTDFTLKISRVEAEDVGVYYCSQNTHVPPTFGQGTKVEIERTVAAPSVFIFPPSDEQLKSGTASVVCLLNNFYPREAKVQWKVDNALQSGNSQESVTEQDSKDSTYSLSSTLTLSKADYEKHKVYACEVTHQGLSSPVTKSFNRGEC |
| 76.4 % of GpH7-A5/GpH7-B3/GpL16-k0 (=100) | 116 % of GpH7-A5/GpH7-B3/GpL16-k0 (=100) | GpH7-A5/GpH7-B3 variant H268_05P/GpL16-k0 (antibody, human IgG1, kappa, Heterodimerized anti-glypican-3 IgG1; the substitution stands in the GpH7-B3 chain only; also called He Ab) heavy 1: not shown heavy 2: not shown light: DIVMTQSPLSLPVTPGEPASISCQASESLVHSNRNTYLHWYLQKPGQSPQLLIYKVSNRFSGVPDRFSGSGSGTDFTLKISRVEAEDVGVYYCSQNTHVPPTFGQGTKVEIERTVAAPSVFIFPPSDEQLKSGTASVVCLLNNFYPREAKVQWKVDNALQSGNSQESVTEQDSKDSTYSLSSTLTLSKADYEKHKVYACEVTHQGLSSPVTKSFNRGEC |
